We go through two molecules from patent US12241090B2, “Methods and systems for converting precursor cells into gastric tissues through directed differentiation” (CHILDREN'S HOSPITAL MEDICAL CENTER, priority 2014, dated 2025).

The subject of test [1] is hPSC-derived foregut spheroids. Nature of the test: Fundus specification protocol: Wnt signaling at days 6-9 of gastric organoid differentiation, qPCR. The class given is cell-based, human. The note with it: Wnt3a at 100 ng/mL and 500 ng/mL. The protocol: Next, the function of Wnt signaling in the regulation of fundus-antrum patterning at days 6-9 of the gastric organoid differentiation protocol was tested. Addition of Wnt3a (at 100 ng/mL and 500 ng/mL) had no effect on spheroid gene expression, but it […] expression of the Wnt target gene Axin2. Thus, the effects of the small molecule CHIR99021 (CHIR; 2 uM) were tested. CHIR99021 stimulates Wnt signaling in a receptor-independent fashion.
Analysis was performed using the ΔΔCT method.
In general terms: Quantitative PCR measures a nucleic acid by following its amplification.

Test [2] deals with hPSC-derived definitive endoderm (DE) cultures. Nature of the test: Endoderm patterning of hPSC-derived DE cultures with growth factors/antagonists, qPCR and immunofluorescence. Format: cell-based, human.
Procedure: Following DE induction, cells were treated for three days with growth factors/antagonists in RPMI 1640 with 2.0% dFBS. […] RA (2 μM; Sigma Aldrich) is added on the final day. Three-dimensional growth and antral specification. Posterior foregut spheroids were embedded in Matrigel (BD Biosciences) as previously described^10, 12 and subsequently grown in Advanced DMEM/F12 (Invitrogen) supplemented with N2 (Invitrogen), B27 (Invitrogen), L-glutamine, 10 μM HEPES, penicillin/streptomycin, and EGF (100 ng ml^−1; R&D Systems). For antral specification, RA and noggin were added for the first three days of three-dimensional growth. For endocrine cell specification, the EGF concentration is lowered to 10 ng ml^−1 at day 30.
The media was changed every day.
All tissues were fixed in 4% paraformaldehyde for either one hour at room temperature for frozen processing or overnight at 4° C. for paraffin processing. For frozen sections, tissue was protected in 30% sucrose overnight at 4° C., then embedded in OCT (Tissue-Tek), and cut at 10 μm. For paraffin sections, tissue was processed through a graded ethanol series, followed by xylene, and then embedded in paraffin and cut at 7 μm. Tissue culture cells were fixed for 15 minutes at room temperature and stained directly. For staining, frozen slides were thawed to room temperature and rehydrated in PBS, while paraffin slides were deparaffinized and subjected to antigen retrieval. Slides were blocked in 5% normal donkey serum (Jackson Immuno Research) in PBS plus 0.5% Triton-X for 30 minutes at room temperature. Primary antibodies (listed in Methods Table 1) were diluted in blocking buffer and incubated overnight at 4° C. Slides were washed in PBS and incubated with secondary antibody for one hour at room temperature, and coverslips were mounted using Fluoromount-G (Southern Biotech). Confocal images were captured on a Nikon A1Rsi inverted confocal microscope.
Setting [3] is: DE cultures after three days, even in the presence of WNT/FGF.

B1: Wnt3a: recombinant WNT3A, Wnt ligand (R&D Systems) (protein, UniProt P56704 19-352, looked up)
Protein Wnt-3a: SYPIWWSLAVGPQYSSLGSQPILCASIPGLVPKQLRFCRNYVEIMPSVAEGIKIGIQECQHQFRGRRWNCTTVHDSLAIFGPVLDKATRESAFVHAIASAGVAFAVTRSCAEGTAAICGCSSRHQGSPGKGWKWGGCSEDIEFGGMVSREFADARENRPDARSAMNRHNNEAGRQAIASHMHLKCKCHGLSGSCEVKTCWWSQPDFRAIGDFLKDKYDSASEMVVEKHRESRGWVETLRPRYTYFKVPTERDLVYYEASPNFCEPNPETGSFGTRDRTCNVSSHGIDGCDLLCCGRGHNARAERRREKCRCVFHWCCYVSCQECTRVYDVHTCK
In the case of B1, in test [1], the “effect on spheroid gene expression” value is “no effect” and the “expression of the Wnt target gene Axin2” value is “did induce”.

B2: Noggin: BMP antagonist / BMP inhibitor (R&D Systems) (protein, UniProt Q13253 28-232, looked up)
Noggin: QHYLHIRPAPSDNLPLVDLIEHPDPIFDPKEKDLNETLLRSLLGGHYDPGFMATSPPEDRPGGGGGAAGGAEDLAELDQLLRQRPSGAMPSEIKGLEFSEGLAQGKKQRLSKKLRRKLQMWLWSQTFCPVLYAWNDLGSRFWPRYVKVGSCFSKRSCSVPEGMVCKPSKSVHLTVLRWRCQRRGGQRCGWIPIQYPIISECKCSC
Take B2: in test [2] (setting [3]), the CDX2 expression result is listed as “repressed” and the “foregut marker SOX2 expression” value was “induced”. Further, the “BMP target genes MSX1/2, qPCR” value in test [2] (response to noggin) was “suppressed”.
